# The RNAGym collection of RNA variant scans (doi:10.1021/acssynbio.7b00057)
# B1: Pistol ribozyme (parent)
# chain: GGGUCGUUGUUCCAUAAUCGCGUGGAUAUGGCACGCAAGUUUCUACCGGGCACCGUAAAUGUCCGACUGGAGCCGUUCGGGCGGCUAUAAACAGACCUCAGGCCCGAAGCGUGGCGGCACCUGCCGCCGGUGGUAAAAAAGAUCGGAAGAGCACACGUCU
# Variants of: B1
# Assay: aptazyme ON/OFF ratio, guanine; higher = stronger switching; co-transcriptional cleavage with and without guanine
row,Variant,aptazyme ON/OFF ratio
1,U7A U8C U10C U11C C12U C13G,1.23
2,U7C U8A G9A U10A U11A C12U,1.19
3,U7C U8C U10C U11A C12A C13U,1.45
4,U7C U8A G9U U11A C13A,1.2
5,U7C U8C G9C U10G U11G C12U,1.11
6,U8G G9A U10A U11A C12U,1.35
7,U7A G9C U10C C12G C13U,1.05
8,U7A U8C G9C U10A U11C C12G C13U,1.27
9,U7C G9A U10G C12A C13G,1.08
10,U7C U8A G9A U11C C12G C13G,1.12
11,U8G G9U U10G U11A C12A,1.08
12,U8A G9A U10A C12G C13G,1.28
13,U7G U8C G9C U11G C13U,1.25
14,U7G U8A G9U U10A C12A C13G,1.06
15,G9C U10A U11G C12G C13A,1.19
16,U7C U8A U11C C13G,1.06
17,U8A U11A C12G C13G,1.06
18,U7C U10A C12G C13A,1.18
19,U7A U8G G9A U10G U11G C13U,1.22
20,U7A G9U C12G,1.39
21,U8G G9C U10G U11C C12A C13G,1.04

row,Variant,aptazyme ON/OFF ratio
1,U10A U11C C12G C13A,1.15
2,U7C U8G G9C U10C U11C C12U,1.04
3,U7A G9A U10C U11C C12A,1.18
4,U8C U10C U11C C12G C13U,1.3
5,U7G U8A G9C U10G U11A,1.04
6,U7G G9A U10C C12A,1.28
7,U7A U8G G9C U11A C12G C13A,1.11
8,U8A G9U U10G U11G C12G,1.27
9,U7A U10C C12A C13A,1.35
10,U7A G9U U10G C12G C13A,1.18
11,U7C U8C G9C U10G U11C C13G,1.08
12,U7C U8C G9U U11A,1.64
13,U7G U8C G9C U10G U11A C12G C13U,1.1
14,U7C U8C U10G U11G C12G,1.2
15,U7A U8C U10G U11G C12U,1.34
16,U7A U10C U11G C13U,1.17
17,U7A U8C U10C U11C C13G,1.17
18,U7G U8A G9A U11G C12U C13G,1.2
19,U7C U8G G9A U10A C13A,1.12
20,U7A G9C U10G U11C C12G C13G,1.21
21,U7G G9U U11C C13G,1.05

row,Variant,aptazyme ON/OFF ratio
1,G9A U10C U11G C12G C13G,1.12
2,U7G U8A G9A U11C C12U,1.18
3,U7G U8A G9U U10G U11A C12G C13U,1.12
4,G9C U11G C12G C13A,1.24
5,U7C U8G G9A C12U,1.19
6,U7C U8G G9U U10C C12A C13U,1.37
7,U7G G9C U10G C12U,1.38
8,U7A U8C G9A U10C C12A C13A,1.2
9,U7G U8C G9U U10A U11A C12U C13A,1.23
10,U8G U10A C12A C13U,1.27
11,U7C U8A G9U U11G C12A,1.09
12,U7A G9A U10C C12G,1.34
13,U7G U8C U11A C12G C13A,1.09
14,U7G U8A G9C U10A U11A C12G C13G,1.01
15,U8G G9A U10C U11G C12U,1.29
16,U8A U10A U11A C12G C13A,1.12
17,U8C U11G C12A C13U,1.16
18,U7G U8G G9A U10C U11A C13A,1.2
19,U7A U8A G9U U10G U11A C12U C13G,1.15
20,U8C G9U U10C U11C,1.05
21,U7C G9A U10G U11A C13U,1.03

row,Variant,aptazyme ON/OFF ratio
1,U7A U8C U11A C13G,1.13
2,U7C G9A U11C C12G,1.22
3,U7C U8C U10C U11C C12G C13A,1.1
4,U7C U8C U10C U11C C12G C13U,1.31
5,C13U,1.38
6,U7G U8G G9U U10C U11A,1.47
7,U8G U10A U11G C12A C13G,1.12
8,U7G U8C G9A U10G U11G C12A C13G,1.1
9,G9C U10C U11G C12G,1.09
10,U7G U8A U10G U11C C13A,1.21
11,U7A G9U U10G U11G C12G C13A,1.23
12,U7A U8G G9U U10A C12G C13U,1.36
13,U7A U8C G9A U10C U11C C12U,1.04
14,U7A U8C G9A U10A C12G C13U,1.28
15,U8A G9C U10A U11A C13G,1.08
16,U7C U8G G9U U10G U11A C12G,1.17
17,U7G U8C G9C U10G U11A C12U C13U,1.03
18,U7G U8G G9U U11A C12A C13A,1.07
19,U7C U8A U10G U11C C12G C13U,1.38
20,U7A U8G G9C U10C C12U,1.24
21,U7A G9C U10C C12U C13U,1.06
